Like-named read-outs stand apart in the source and are kept apart here.
Assays:
[1] = target: T1, human GITR (human, UniProt Q9Y5U5 26-241); experiment: cell-based or functional assay
T1 sequence: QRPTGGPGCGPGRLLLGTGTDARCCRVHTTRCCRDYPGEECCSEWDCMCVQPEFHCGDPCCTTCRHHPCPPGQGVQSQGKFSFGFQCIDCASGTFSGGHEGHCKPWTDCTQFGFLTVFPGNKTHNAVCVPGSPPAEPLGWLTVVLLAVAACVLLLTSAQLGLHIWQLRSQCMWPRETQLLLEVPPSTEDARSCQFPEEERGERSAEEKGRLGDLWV

[2] = target: T2, cynomolgus monkey GITR (cynomolgus monkey, UniProt Q9Y5U5 26-241 (human entry)); experiment: cyno T cell binding EC50 against human T cell binding EC50
T2 construct: also called cyno GITR
T2 chain: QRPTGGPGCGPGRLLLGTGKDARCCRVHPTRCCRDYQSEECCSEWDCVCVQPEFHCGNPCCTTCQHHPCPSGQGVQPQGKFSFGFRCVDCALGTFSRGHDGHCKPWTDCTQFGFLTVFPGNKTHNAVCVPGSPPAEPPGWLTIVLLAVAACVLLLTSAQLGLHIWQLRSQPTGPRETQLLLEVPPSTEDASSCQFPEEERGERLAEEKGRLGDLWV

[3] = target: T1, human GITR; experiment: flow cytometry on activated human T cells
[4] = target: T2, cynomolgus monkey GITR; experiment: flow cytometry, cyno T cell binding
[5] = target: T1, human GITR; experiment: cell-based or functional assay; remark: listed apart in the source
[6] = target: T1, human GITR; experiment: flow cytometry, human T cell binding

Row | Binder | Proliferation (Fold over CD3) [1] [fold over CD3] | Proliferation EC50 [1] [ng/mL] | Cyno:Hu Binding EC50 Ratio [2] [ratio] | EC50 [3] [ng/mL] | EC50 [4] [ng/mL] | Activation EC50 ng/mL (IFNg secretion) [5] [ng/mL] | Proliferation (Fold over CD3) [5] [fold over CD3] | EC50 [6] [ng/mL]
1 | 7A10v1 (antibody, human IgG1, kappa, V domains shown, Engineered variant; also called Ab39; SS-13810) VH: QVQLVESGGGVVQPGRSLRLSCAASGFTFSSYGMHWVRQAPGKGLEWMAVIWYVGSNKYYADSVKGRFTISRDNSKNTLYLQMNSLRAEDTAVYYCARGGELGRDYYSGMDVWGQGTTVTVSS VL: DIQMTQSPSSLSASVGDRVTITCRASQGIRNDLGWYQQKPGKAPKRLIYAASSLQSGVPSRFSGSGSGTEFTLTISSLQPEDFATYYCQQHNSYPWTFGQGTKVEIKR | 3 | 3 | 6.4 | 56 | 173 | 0.32 | 3 | 27
2 | 41G5v2 (antibody, human IgG1, kappa, V domains shown, Engineered variant; also called Ab56; SS-13809) VH: QVQLVESGGGVVQPGRSLRLSCAASGFTFSSYGMHWVRQAPGKGLEWVAVIWYPGSNKYYAESVKGRFTISRDNSKNTLYLQMNSLRAEDTAVYYCARGGELGRYYYYGMDVWGQGTTVTVSS VL: DIQMTQSPSSLSASVGDRVTVTCRASQGIRNDLGWYQQKPGKAPKRLIYAASSLQSGVPSRFSGSGSGTEFTLTISSLQPEDFATYYCLQHNNYPWTFGQGTKVDIKR | 3.5 | 3 | 4.6 | 57 | 153 | 0.64 | 3.5 | 33
3 | 33C9v2 (antibody, human IgG1, kappa, V domains shown, Engineered variant; also called Ab51; SS-13808) VH: QVQVVESGGGVVQPGRSLRLSCAASGFTFSSYGMHWVRQAPGKGLEWVSVIWYEGSNKYYAESVKGRFTISRDNSKNTLYLQMNSLRAEDTAVYYCARGGLLGYYYYYGMDVWGQGTTVTVSS VL: DIQMTQSPSSLSASVGDRVTITCRASQGIRNDLGWYQQKPGKAPKRLIYDASSLQSGVPSRFSGSGSGTEFTLTISSLQPEDFATYYCLQHHSYPWTFGQGTKVEIKR | 2.9 | 7 | 8.6 | 60 | 301 | 0.86 | 2.9 | 35
4 | 9H6v3 (antibody, human IgG1, kappa, V domains shown, Engineered variant; also called Ab46; SS-13806) VH: QVQLVESGGGVVQPGRSLRLSCVASGFTFSSYGMHWIRQAPGKGLEWVAVIWYEGSNKYYAESVKGRFTISRDNSKNTLYLQMNSLRAEDTAVYYCARGGRLGKDYYSGMDVWGQGTTVTVSS VL: DIQMTQSPSSLSASVGDRVTITCRASQGIRNDLGWYQQKPGKAPKRLIYATSSLQSGVPSRFSGSGSGTEFTLTISSLQPEDFATYYCLQHNTYPWTFGQGTKVEIKR | 3.7 | 6 | 7.1 | 90 | 184 | 0.06 | 3.7 | 26
5 | 5H7v2 (antibody, human IgG1, kappa, V domains shown, Engineered variant; also called Ab26; SS-13807) VH: QVQLQESGPGLVKPSETLSLTCTVSGGSISSGGYFWSWIRQPPGKGLEWIGYIYYSGTTYYNPSLKSRVTISIDTSKNQFSLKLSSVTAADTAVYYCARDLFYYDTSGPRGFDPWGQGTLVTVSS VL: EIVLTQSPGTLSLSPGERATLSCRASQTVSSNYLAWYQQKPGQAPRLLIYGSSTRATGIPDRFSGSGSGTDFTLTISRLEPEDFAVYYCQQYDSSPWTFGQGTKVEIKR | 3.2 | 11 | 3.7 | 279 | 619 | 1.6 | 3.2 | 164
